From patent US8227418B2 (priority 2004, dated 2012)

Tests used:
[1] = system: anthrax LeTx cytolysis of RAW 264.7 cells
[2] = biological target: LF (anthrax lethal factor) (Bacillus anthracis, UniProt P15917); type: biochemical, B. anthracis
[3] = system: ERK and p38 MAPK phosphorylation in RAW 264.7 cells; type: cell-based, murine
[4] = system: cleavage of MKK3b by LF in RAW 264.7 macrophages; type: cell-based, murine
LeTx intoxication = system: LeTx intoxication; parameters: species or system Balb/c mice; details: mouse, in vivo, iv

Row | Substance | Protection of RAW 264.7 cells against cytotoxicity by LeTx (co-treatment) [1] | Inhibition of in vitro MKK3b proteolysis by LF [2] | Restoration of ERK and p38 phosphorylation inhibited by LeTx [3] | Prevention of LeTx toxicity by pre-treatment of macrophages [1] | Protection of RAW 264.7 cells 24 hrs after LeTx treatment [1] | Protection of RAW 264.7 cells from LeTx induced cytotoxicity under serum-supplemented conditions [1] | Inhibition of MKK3b cleavage in LeTx treated cells [4] | Protection of mice from LeTx intoxication (survival) (LeTx intoxication)
1 | HNP-2 (CYCRIPACIAGERRYGTCIYQGRLWAFCC; homo sapiens) | showed similar protection |  |  |  |  |  |  | 
2 | HNP-1 | completely abolished cytotoxicity | proteolysis was efficiently inhibited | phosphorylation of these two MAPKs was restored | prevented LeTx toxicity in a HNP-1 dose dependent manner | protection was observed even 24 hrs after LeTx treatment | still protected cells from LeTx induced cytotoxicity | efficiently inhibited | 
3 | Magainin I |  | did not prevent cleavage of MKK3b |  |  |  |  |  | 
4 | LL-37 | did not display any significant effect | did not prevent cleavage of MKK3b |  |  |  |  |  | had no effect on LeTx toxicity
